The target in this assay is c-Jun N-terminal Kinase (JNK). Kind of assay: cell-based or functional assay.

Among the data in patent publication US20170128524A1 are phosphorylation of STX1a (S14) in synaptosomes, L-JNKi1 on its own values, retold here.

With L-JNKi1 (peptide), the phosphorylation of STX1a (S14) in synaptosomes, L-JNKi1 on its own is -45%.
